Assay results from publication PMC5068707 (PLoS Pathogens, 2016).
Where no end group is shown, it is not given here.

B1: biotinylated EBOV NP peptide 560–617 (peptide)
chain: RMLTPINEEADPLDDADDETSSLPPLESDDEEQDRDGTSNRTPTVAPPAPVYRDHSEK
modifications: not fully specified (N-terminus); also: biotinylated (position not given here)
B2: Ebola virus VP30 C-terminal domain (amino acids 139–288) (domain or fragment)
chain: GPKITLLTLIKTAEHWARQDIRTIEDSKLRALLTLCAVMTRKFSKSQLSLLCETHLRREGLGQDQAEPVLEVYQRLHSDKGGSFEAALWQQWDRQSLIMFITAFLNIALQLPCESSAVVVSGLRTLVPQSDNEEASTNPGTCSWSDEGTP

What was measured:
[1] = target: MARV NP 552-579-VP30 146–281 fusion protein (Marburg virus (MARV)) (UniProt P27588); experiment: crystal structure
[2] = target: B2; experiment: crystal structure; conditions: both partners purified
[3] = target: B2; experiment: BLI; conditions: both partners purified
[4] = target: T1, EBOV NP C-terminal portion (360–739) (Ebola virus (EBOV), UniProt P18272 360-739); experiment: ITC; conditions: both partners purified
T1 sequence: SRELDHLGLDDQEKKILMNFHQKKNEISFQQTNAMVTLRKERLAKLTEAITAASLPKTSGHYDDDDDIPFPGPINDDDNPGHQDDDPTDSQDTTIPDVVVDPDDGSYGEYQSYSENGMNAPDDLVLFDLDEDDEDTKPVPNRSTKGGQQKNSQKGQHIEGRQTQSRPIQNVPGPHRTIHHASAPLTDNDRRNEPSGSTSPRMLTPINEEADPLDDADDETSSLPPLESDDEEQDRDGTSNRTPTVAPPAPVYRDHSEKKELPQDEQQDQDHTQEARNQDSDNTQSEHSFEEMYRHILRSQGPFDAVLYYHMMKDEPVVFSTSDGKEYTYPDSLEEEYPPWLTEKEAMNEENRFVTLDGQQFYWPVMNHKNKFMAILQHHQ

MARV VP30 CTD (146–281) = target: T2, MARV VP30 CTD (146–281) (Marburg virus (MARV), UniProt P35258 146-281); experiment: ITC; conditions: both partners purified
T2 sequence: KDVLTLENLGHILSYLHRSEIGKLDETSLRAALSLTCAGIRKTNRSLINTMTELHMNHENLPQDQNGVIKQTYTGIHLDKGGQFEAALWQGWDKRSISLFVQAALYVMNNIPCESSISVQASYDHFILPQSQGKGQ

MARV NP 552-579-VP30 146–281 fusion protein (from UniProt P27588;P35258)
stoichiometry N [1]: 2

RTPTVAPPAPVYRDHSEKKELPQDEQQD [EBOV NP peptide (600–627), as the N-terminal part of the NP-VP30 fusion]
binding result [2]: binds

SSLPPLESDDEEQDRDGTSNRTPTVAPPAPVYRDHSEK (not fully specified (N-terminus); also: biotinylated (position not given here)) [biotinylated EBOV NP peptide 580–617]
binding result [3]: binds

B1
binding result [3]: binds

B2
Kd [4]: 21.3 µM

EQGVDLPPPPLYAQEKRQ [MARV NP peptide (552–569) fused to T4 lysozyme]
Kd (MARV VP30 CTD (146–281)): 14 µM
